According to paper PMC2528183:

T1: ttRecF;ttRecR (Thermus thermophilus;Thermus …, UniProt Q5SLM9;Q5SHY0 1-343;1-194, |)
T1 sequence 1: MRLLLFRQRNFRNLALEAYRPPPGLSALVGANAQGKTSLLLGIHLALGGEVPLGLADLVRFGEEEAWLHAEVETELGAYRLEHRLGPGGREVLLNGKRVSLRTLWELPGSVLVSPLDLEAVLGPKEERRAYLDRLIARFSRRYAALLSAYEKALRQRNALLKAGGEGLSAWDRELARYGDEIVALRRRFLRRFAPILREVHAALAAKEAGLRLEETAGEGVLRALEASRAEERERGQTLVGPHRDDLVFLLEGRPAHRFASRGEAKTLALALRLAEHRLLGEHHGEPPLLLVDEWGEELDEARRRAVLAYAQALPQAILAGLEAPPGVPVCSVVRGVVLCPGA
T1 sequence 2: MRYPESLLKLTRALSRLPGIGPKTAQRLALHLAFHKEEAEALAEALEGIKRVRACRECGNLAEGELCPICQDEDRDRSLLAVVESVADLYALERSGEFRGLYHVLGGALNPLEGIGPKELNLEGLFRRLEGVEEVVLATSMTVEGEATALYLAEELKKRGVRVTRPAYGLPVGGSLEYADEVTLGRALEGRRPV

T2: ttRecF (Thermus thermophilus, UniProt Q5SLM9 1-343)
T2 sequence: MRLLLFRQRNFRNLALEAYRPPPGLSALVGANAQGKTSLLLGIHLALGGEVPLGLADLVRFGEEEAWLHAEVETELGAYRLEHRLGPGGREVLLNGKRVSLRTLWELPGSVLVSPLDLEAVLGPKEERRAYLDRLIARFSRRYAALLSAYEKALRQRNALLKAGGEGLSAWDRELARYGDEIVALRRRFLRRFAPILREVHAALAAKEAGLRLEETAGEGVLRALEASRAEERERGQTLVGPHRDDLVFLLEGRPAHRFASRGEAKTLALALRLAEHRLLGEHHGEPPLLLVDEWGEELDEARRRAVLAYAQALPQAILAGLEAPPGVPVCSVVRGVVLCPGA

T3: ttRecR (Thermus thermophilus, UniProt Q5SHY0 1-194)
T3 sequence: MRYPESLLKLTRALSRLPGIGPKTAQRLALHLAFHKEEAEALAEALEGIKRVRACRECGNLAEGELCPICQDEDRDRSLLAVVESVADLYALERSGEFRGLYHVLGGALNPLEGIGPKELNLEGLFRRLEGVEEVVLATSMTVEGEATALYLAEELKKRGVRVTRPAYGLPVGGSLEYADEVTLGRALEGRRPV


Experiments:
[1] = molecular target: Thermus thermophilus RecR (ttRecR), wild type (Thermus thermophilus); assay: SEC
[2] = molecular target: Thermus thermophilus RecR (ttRecR), wild type (Thermus thermophilus); assay: SAXS
[3] = molecular target: Thermus thermophilus RecF (ttRecF) (Thermus thermophilus); assay: SAXS
[4] = molecular target: Thermus thermophilus RecR (ttRecR), wild type (Thermus thermophilus); assay: SAXS; remark: listed apart in the source
[5] = molecular target: T1, ttRecF;ttRecR; assay: EMSA
[6] = molecular target: T2, ttRecF; assay: EMSA
[7] = molecular target: T3, ttRecR; assay: EMSA

stoichiometry N [1]	stoichiometry N [2]	N, ttRecF chains in the complex [3]	N, ttRecR chains in the complex [3]	stoichiometry N [4]	Molecule	binding result [5]	binding result [6]	binding result [7]
2	2	2	4	4	Thermus thermophilus RecR (ttRecR), wild type (natural protein)	–	–	–
–	–	–	–	–	70 bp dsDNA (dsDNA) DNA 1: GCGATCCTTATTAAAACGGCAACTCCTCCTCCGGCGGAAAGTCTTCCAAGCCTTCGTCAATGTCCACCCC DNA 2: GGGGTGGACATTGACGAAGGCTTGGAAGACTTTCCGCCGGAGGAGGAGTTGCCGTTTTAATAAGGATCGC	binds	binds	no binding
